In patent US20200062828A1 (PANASONIC INTELLECTUAL PROPERTY MANAGEMENT, published 2020) one finds Kd, koff and kon data, which are given here for nine molecules.

Sequences and labels used below:
T1: VLP noro antigen derived from the norovirus GII/4, composed by associating 90 dimers of VP1 each including … (norovirus GII/4, UniProt P54635 1-539)
T1 construct: Virus-like particle; also called solid phase VLP
T1 chain: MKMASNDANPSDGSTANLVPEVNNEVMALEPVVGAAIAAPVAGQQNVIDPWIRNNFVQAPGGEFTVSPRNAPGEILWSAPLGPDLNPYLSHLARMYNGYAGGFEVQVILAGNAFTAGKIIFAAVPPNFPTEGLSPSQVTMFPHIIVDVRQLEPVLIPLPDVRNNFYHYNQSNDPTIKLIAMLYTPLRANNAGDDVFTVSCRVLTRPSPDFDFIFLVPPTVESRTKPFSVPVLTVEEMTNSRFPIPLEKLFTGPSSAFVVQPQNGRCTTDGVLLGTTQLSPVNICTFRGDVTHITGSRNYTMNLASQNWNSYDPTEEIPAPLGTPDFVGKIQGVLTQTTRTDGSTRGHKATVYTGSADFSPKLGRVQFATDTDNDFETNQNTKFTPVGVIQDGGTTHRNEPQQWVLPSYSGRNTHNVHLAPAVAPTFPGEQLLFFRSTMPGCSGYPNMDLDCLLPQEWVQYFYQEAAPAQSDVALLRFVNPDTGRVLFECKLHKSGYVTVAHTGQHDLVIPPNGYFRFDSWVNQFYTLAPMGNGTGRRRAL

T2: noro antigen (recombinant of the p-domain protein of the GII/4 norovirus (NSW-2012)) (GII/4 norovirus (NSW-2012), UniProt P54635 1-539)
T2 construct: Viral capsid protein antigen; also called antigen of the norovirus; recombinant p-domain protein
T2 chain: T1 chain

B1: VHH antibody including the amino acid sequence represented by SEQ ID NO: 38 (VHH)
VHH: QVQLVESGGGVVQTGGSLRLSCAASGSTFSIGAMGWYRQAPGKQRELVATVNRASRTIYADSVRGRFTISRDNAKNLVYLQMNNLKPEDTAVYYCNVIATSASGRGVTSTSWGQGSQVTVSS
notes: Alpaca VHH expressed in E. coli; also called monomer antibody; not shown: C-terminal 3xFlag tag and His tag from the modified pET22b(+) vector
B2: dimer antibody having two of the structural domains each having the amino acid sequence represented by SEQ ID NO: 38 (SEQ ID NO: 97) (VHH)
chain: QVQLVESGGGVVQTGGSLRLSCAASGSTFSIGAMGWYRQAPGKQRELVATVNRASRTIYADSVRGRFTISRDNAKNLVYLQMNNLKPEDTAVYYCNVIATSASGRGVTSTSWGQGSQVTVSSGGGGSGGGASGGGGSQVQLVESGGGVVQTGGSLRLSCAASGSTFSIGAMGWYRQAPGKQRELVATVNRASRTIYADSVRGRFTISRDNAKNLVYLQMNNLKPEDTAVYYCNVIATSASGRGVTSTSWGQGSQVTVSSEPKTPKPQSASAA
notes: also called Divalent 97
B3: dimer antibody (SEQ ID NO: 98) in which the structure domain of SEQ ID NO: 38 and the structure domain of SEQ ID NO: 39 are connected from N to C via a linker (VHH)
chain: QVQLVESGGGVVQTGGSLRLSCAASGSTFSIGAMGWYRQAPGKQRELVATVNRASRTIYADSVRGRFTISRDNAKNLVYLQMNNLKPEDTAVYYCNVIATSASGRGVTSTSWGQGSQVTVSSGGGGSGGGASGGGGSQLQLVESGGGLVQAGGSLRLSCVASGFPFASSAMAWFRQAPGKEREFVASISYRGITTYYAQPVKGRFTMSRDNAKNTVYLQMNSLKPEDTAVYYCYAKSIWGNAYWGQGTQVTVSPEPKTPKPQSASAA
notes: Single-chain tandem heterodimer of two VHH domains (38 then 39); also called Divalent 98
B4: dimer antibody (SEQ ID NO: 99) in which the structure domain of SEQ ID NO: 39 and the structure domain of SEQ ID NO: 38 are connected from N to C via a linker (VHH)
chain: QLQLVESGGGLVQAGGSLRLSCVASGFPFASSAMAWFRQAPGKEREFVASISYRGITTYYAQPVKGRFTMSRDNAKNTVYLQMNSLKPEDTAVYYCYAKSIWGNAYWGQGTQVTVSPGGGGSGGGASGGGGSQVQLVESGGGVVQTGGSLRLSCAASGSTFSIGAMGWYRQAPGKQRELVATVNRASRTIYADSVRGRFTISRDNAKNLVYLQMNNLKPEDTAVYYCNVIATSASGRGVTSTSWGQGSQVTVSSEPKTPKPQSASAA
notes: Single-chain tandem heterodimer of two VHH domains (39 then 38); also called Divalent 99
B5: VHH antibody including the amino acid sequence represented by SEQ ID NO: 39 (VHH)
VHH: QLQLVESGGGLVQAGGSLRLSCVASGFPFASSAMAWFRQAPGKEREFVASISYRGITTYYAQPVKGRFTMSRDNAKNTVYLQMNSLKPEDTAVYYCYAKSIWGNAYWGQGTQVTVSP
notes: also called Monovalent 65; not shown: C-terminal 3xFlag tag and His tag from the modified pET22b(+) vector
B6: VHH antibody including the amino acid sequence represented by SEQ ID NO: 41 (VHH)
VHH: EVQLVESGGGLVQAGGSLRLSCAVSGRTSSRYVMGWVRQAPGKEREFLAAISWSAGYTFYRDSVKGRFTISRDNAKNTVYLQMNSLKPEDTAVYYCNADENGLGRKRGFGSWGQGTQVTVSS
notes: also called anti-noro antibody; not shown: C-terminal 3xFlag tag and His tag from the modified pET22b(+) vector
B7: VHH antibody including the amino acid sequence represented by SEQ ID NO: 42 (VHH)
VHH: ELQLVESGGGAVHTGGSLRLSCAVSGRTDIRYAMGWFRQAPGREREFVAAISWNGDDTFYADSVKGRFTISRDNAKNAVSLQMDSLRPEDTAVYYCNARNSYAAFARAYWGQGTQVTVSS
notes: as for B6
B8: VHH antibody including the amino acid sequence represented by SEQ ID NO: 43 (VHH)
VHH: QLQLVESGGGLVQPGGSLRLSCAASGFTLDYYAIGWFRQAPGNEREFVAAISWNGGSTYYADSVKGRFTISRDNAKETVYLQMNSLKPEDTGVYYCNYRPQFGLGYNYWGQGTQVTVSS
notes: as for B6
B9: VHH antibody including the amino acid sequence represented by SEQ ID NO: 40 (VHH)
VHH: QLQLVEPGGGVVQPGGSLRLSCLASGSDFSLGAMGWYRQAPGKQRELVAIINRASWTRYADSVKGRFTISRDNSKNLVFLQMNNLKPDDTAVYYCNAIATSASGRGVTSTSWGQGSQVTVSS
notes: not shown: C-terminal 3xFlag tag and His tag from the modified pET22b(+) vector

For one test, the target named is T1, VLP noro antigen derived from the …. The test is described as follows: SPR (T200, CM3), VLP noro antigen immobilized, antibody as analyte.
With B1, the dissociation constant (Kd) was determined as 149 nM, the koff came out at 0.0214 s⁻¹ and the kon amounted to 144000 M⁻¹ s⁻¹.

Consider B2, for which binding was characterised by a dissociation constant (Kd) of 0.13 nM, the koff came out at 0.000302 s⁻¹ and the kon was found to be 2.32e+06 M⁻¹ s⁻¹.

In turn, B3 registered a Kd of 0.485 nM, a koff of 0.00198 s⁻¹ and a kon of 4.08e+06 M⁻¹ s⁻¹.

B4 yielded a Kd of 0.00947 nM, a koff of 0.000356 s⁻¹ and a kon of 3.75e+07 M⁻¹ s⁻¹.

Turning to B5, the Kd turned out to be 54.8 nM.

In the next test the target is T2, noro antigen (recombinant of the …). The test is described as follows: SPR (T200, CM5), noro antigen immobilized, VHH as analyte, separate concentrations.
B6: the Kd amounted to 81.6 nM.

For the molecule B7, the Kd worked out at 63.8 nM.

Take B8: the equilibrium dissociation constant (Kd) worked out at 5.45 nM.

A further test shares this target. The test can be described thus: SPR (T200), VHH immobilized, noro antigen as analyte added serially.
Take B6: the Kd amounted to 4.98 nM.

As for B9, the Kd stood at 9.57 nM.

With B1, the Kd worked out at 4.15 nM.

Take B7: the Kd was 13.1 nM.

In the case of B8, the Kd was 10.3 nM.

As for B5, the Kd turned out to be 15.9 nM.

For a further test the target is unchanged. The test can be described thus: SPR (T200, CM5), noro antigen immobilized, VHH as analyte added serially.
Consider B9, for which the Kd came out at 9.5 nM.

With B1, the Kd is 1.15 nM.

Regarding B5, the Kd was 15.8 nM.

A word on the Kd: it is the constant that tells how readily two partners part at equilibrium. By koff is commonly meant a measure of how fast the partners let go of each other. A low value points to a long-lived complex. One may read the kon as a measure of how fast the partners come together. Higher therefore signals fast association.
